Measurements: the RNAGym collection of RNA variant scans (doi:10.1101/gr.219683.116)

B1: mRNA-splicing (parent)
chain: AGUUGCUGCUGGGAGCUCCAGCACAGUGAAAUGGACAGAAGGGCAGAGCAA

Variants of: B1
Test: exon inclusion enrichment index; higher = more inclusion; WT1 exon 5 minigene, HEK293

Row | Variant | exon inclusion enrichment index
1 | AGUUACCACCGGGAGCUCCAGCACAGGAAAAUGGACAGAAGGGCAGAGCAA [G5A U7C G8A U10C U27G G28A] | 2.37
2 | AGUUACCACCGGGAGCUCCAGCACAGUGAAAUGGACGCAAGGGCAGAGCAA [G5A U7C G8A U10C A37G G38C] | 2.62
3 | AGUUCACACAGGGAGCUCCAGCACAGUGAAAUGGACAAGAGGGCAGAGCAA [G5C C6A U7C G8A U10A G38A A39G] | 0.102
4 | AGUUGAAGAAGGGAGCUCCAGCACAGUGAAAUGGACAGAAGGGUCGAGCAA [C6A U7A C9A U10A C44U A45C] | 1.16
5 | AGUUAUAUAUGGGAGCUCCAGCACAGUGAAAUCUACAGAAGGGCAGAGCAA [G5A C6U U7A G8U C9A G33C G34U] | 0.0325
6 | AGUUGACGACUGGAGCUCCAGCACAGUGAAAUGGACAGAAGGGCAGAGCAA [C6A U7C C9A U10C G11U] | 3.07
7 | AGUUUCUUUUGGGAGCUCCAGCACAGUGAAAUGGACAGAAGGGCAGUUCAA [G5U G8U C9U A47U G48U] | 0.143
8 | AGUAUGCGCCGGGAGCUCCAGCACAGUGAAAUGGACAGAAGGGCAGAGCAA [U4A G5U C6G U7C U10C] | 1.96
9 | AGUUUCUUUUGGGAGCUGAAGCACAGUGAAAUGGACAGAAGGGCAGAGCAA [G5U G8U C9U C18G C19A] | 0.159
10 | AGUUGAUGAAGGGAGCUCCAGCACAGUGAAAUGGACAGAAGGGCAGAGCAA [C6A C9A U10A] | 0.333
11 | AGUUGACGACGGGAGCUCCAGCACAGUGAAAUGGACAGAAGGGCAAAGCAA [C6A U7C C9A U10C G46A] | 2.98
12 | AGUUAUAUCAGGGAGCUCCAGCACAGUGAAAUGGACAGAAGGGCAGAGCAA [G5A C6U U7A G8U U10A] | 0.0329
13 | AGUUGAAGAAGGGAGCUCCAGCACAGUGAAAUGGACAGAAGGGCCAAGCAA [C6A U7A C9A U10A A45C G46A] | 0.367
14 | AGUUCACACAGGGAGCUCCAGCACAGUGAAAUGGACAGAGAGGCAGAGCAA [G5C C6A U7C G8A U10A A40G G41A] | 0.0264
15 | AGUUGACGACGGGAGCUCCAGCACAAAGAAAUGGACAGAAGGGCAGAGCAA [C6A U7C C9A U10C G26A U27A] | 2.91
16 | AGUUGACGUGGGGAGCUCCAGCACAGUGAAAUGGACAGAAGGGCAGAGCAA [C6A U7C C9U U10G] | 0.298
17 | AGUUGACGACGGGAGCUCCAGCACAGUGAAAUGGACAGAAGGGCACUGCAA [C6A U7C C9A U10C G46C A47U] | 2.64
18 | AGUUGCUGCUGGGAGCUCCGUCACAGUGAAAUGGACAGAAGGGCAGAGCAA [A20G G21U] | 2.37
19 | AGUUCUUCUCGGGAGCUCCAGCACAGUGAAAUGGAAGGAAGGGCAGAGCAA [G5C C6U G8C C9U U10C C36A A37G] | 0.805
20 | AGUUGCUGCUGUGAGCUCCAGCACAGUGAAAUGGACAGAAGGGCAGAGCAA [G12U] | 0.925
21 | AGUUACCACCGGGAGGACCAGCACAGUGAAAUGGACAGAAGGGCAGAGCAA [G5A U7C G8A U10C C16G U17A] | 2.77
22 | AGUAGAAGAAGGGAGCUCCAGCACAGUGAAAUGGACAGAAGGGCAGAGCAA [U4A C6A U7A C9A U10A] | 0.122
23 | AGUUGACGACGGGAGCUCCAGUACAGUGAAAUGGACAGAAGGGCAGAGCAA [C6A U7C C9A U10C C22U] | 2.84
24 | AGUUCUUCUCGGGAGCUCCCGCACAGUGAAAUGGACAGAAGGGCAGAGCAA [G5C C6U G8C C9U U10C A20C] | 1.41
25 | AGUUGAAGAAGGGAGCUCCAGCACAGUGAAAUGGACAGAAGUCCAGAGCAA [C6A U7A C9A U10A G42U G43C] | 0.532
26 | AGUUCACACAGGGAGCUCCAGAACAGUGAAAUGGACAGAAGGGCAGAGCAA [G5C C6A U7C G8A U10A C22A] | 0.0834

Row | Variant | exon inclusion enrichment index
27 | AGUUACUGCCGGGAGCUCCAGCACAGUGAAAUGGACAGAAGGGCAGAGCAA [G5A U10C] | 2.01
28 | AGUUCUUCUCGGGAGCUCCAGGUCAGUGAAAUGGACAGAAGGGCAGAGCAA [G5C C6U G8C C9U U10C C22G A23U] | 0.248
29 | AGUUCACACAGCGAGCUCCAGCACAGUGAAAUGGACAGAAGGGCAGAGCAA [G5C C6A U7C G8A U10A G12C] | 0.365
30 | AGUUGACGACGGGAGCUCCAGCACAGUGAAAUGGACAGAACCGCAGAGCAA [C6A U7C C9A U10C G41C G42C] | 3.48
31 | AGUUAUACCUGGGAGCUCCAGCACAGUGAAAUGGACAGAAGGGCAGAGCAA [G5A C6U U7A G8C] | 0.696
32 | AACUCUUCUCGGGAGCUCCAGCACAGUGAAAUGGACAGAAGGGCAGAGCAA [G2A U3C G5C C6U G8C C9U U10C] | 2.03
33 | AGUUUCUUUUGGGAGCUCCAGCACAGUGAAAUGGACAGAAGCACAGAGCAA [G5U G8U C9U G42C G43A] | 0.494
34 | AGUUCACACAGGGAGCUCCAGCACAGUGAAUGGGACAGAAGGGCAGAGCAA [G5C C6A U7C G8A U10A A31U U32G] | 0.0217
35 | AGUUCUUCUACGGAGCUCCAGCACAGUGAAAUGGACAGAAGGGCAGAGCAA [G5C C6U G8C C9U U10A G11C] | 1.84
36 | AGUUCUUCUCGGGAGCAUCAGCACAGUGAAAUGGACAGAAGGGCAGAGCAA [G5C C6U G8C C9U U10C U17A C18U] | 1.58
37 | AGUUGAAGAAGGGAGCUCCAGCACGUUGAAAUGGACAGAAGGGCAGAGCAA [C6A U7A C9A U10A A25G G26U] | 1.43
38 | AGUUACCACCGGGAGCUCCAGCACAUAGAAAUGGACAGAAGGGCAGAGCAA [G5A U7C G8A U10C G26U U27A] | 1.08
39 | AGUUAGGGAUGGGAGCUCCAGCACAGUUGAAUGGACAGAAGGGCAGAGCAA [G5A C6G U7G C9A G28U A29G] | 0.00238
40 | AGUUUCUUUUGGGAGCUCCAGCACAGUGAAAUGGACAGAAGGGCAGUGCAA [G5U G8U C9U A47U] | 0.115
41 | AGUUGACGACGGGCCCUCCAGCACAGUGAAAUGGACAGAAGGGCAGAGCAA [C6A U7C C9A U10C A14C G15C] | 1.7
42 | AGUUGACGACGUCAGCUCCAGCACAGUGAAAUGGACAGAAGGGCAGAGCAA [C6A U7C C9A U10C G12U G13C] | 0.584
43 | AGUUGCUGCUGGGAGCUCCAGCACAGUGAAACGGACAGAAGGGCAGAGCAA [U32C] | 0.336
44 | AGUUCUUCUCGGGAGCUUGAGCACAGUGAAAUGGACAGAAGGGCAGAGCAA [G5C C6U G8C C9U U10C C18U C19G] | 0.675
45 | AGUUGAAGAAGCUAGCUCCAGCACAGUGAAAUGGACAGAAGGGCAGAGCAA [C6A U7A C9A U10A G12C G13U] | 0.355
46 | AGUUGCUGCUGGGAGCAUCAGCACAGUGAAAUGGACAGAAGGGCAGAGCAA [U17A C18U] | 1.09
47 | AGUUACCACCGGGAGCUCCAGCACAGCAAAAUGGACAGAAGGGCAGAGCAA [G5A U7C G8A U10C U27C G28A] | 2.31
48 | AGUUGCUGCUGGGAGCUCAAGCACAGUGAAAUGGACAGAAGGGCAGAGCAA [C19A] | 1.49
49 | AGUUCGCGCCGGGAAAUCCAGCACAGUGAAAUGGACAGAAGGGCAGAGCAA [G5C C6G U7C U10C G15A C16A] | 3.14
50 | AGUUCGCGCCGGGAGCUCCAGCACAGUGAAAUGGACAGAGUGGCAGAGCAA [G5C C6G U7C U10C A40G G41U] | 3.4
51 | AGUUAUAUAUGGGAGCUCCAGCACAGUGAAAUGUACAGAAGGGCAGAGCAA [G5A C6U U7A G8U C9A G34U] | 0.00388
